Data from publication PMC8516035.
pKd: −log10 of the molar value.

How the values were obtained:
[1] = tested on: T1, phi13 CI, His-TEV tag cleaved (Staphylococcus aureus phage phi13), ORF:0019350b; assay: EMSA
T1 sequence: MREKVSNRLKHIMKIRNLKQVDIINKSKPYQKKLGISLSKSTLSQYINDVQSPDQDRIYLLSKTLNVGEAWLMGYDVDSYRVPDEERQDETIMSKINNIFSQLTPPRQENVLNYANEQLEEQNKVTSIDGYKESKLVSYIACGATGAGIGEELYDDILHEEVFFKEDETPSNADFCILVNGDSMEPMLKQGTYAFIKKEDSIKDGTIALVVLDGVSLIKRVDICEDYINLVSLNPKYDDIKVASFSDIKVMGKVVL

[2] = tested on: phi13 rCI (CI repressor, N-terminal His-TEV) (Staphylococcus aureus phage phi13); assay: EMSA; conditions: Binding buffer (as listed, possibly stock) 100 mM Tris-HCl, 5 mM EDTA, 500 mM NaCl, 5 mM DTT, 25% glycerol, plus BSA and sheared DNA, pH not stated, ~0.5 nM …
[3] = tested on: phi13 rCI (CI repressor, N-terminal His-TEV) (Staphylococcus aureus phage phi13); assay: EMSA; conditions: Binding buffer (as listed, possibly stock) 100 mM Tris-HCl, 5 mM EDTA, 500 mM NaCl, 5 mM DTT, 25% glycerol, plus BSA and sheared DNA; pH not stated; ~0.5 nM …
[4] = tested on: phi13 CI, His-TEV tag cleaved (Staphylococcus aureus phage phi13); assay: EMSA; conditions: Binding buffer (as listed, possibly stock) 100 mM Tris-HCl, 5 mM EDTA, 500 mM NaCl, 5 mM DTT, 25% glycerol, plus BSA and sheared DNA; pH not stated; ~0.5 nM …
[5] = target: ɸ13 rCI (recombinant CI repressor protein of phage ɸ13 with an N-terminal His-tag and TEV cleavage site) (S. aureus phage ɸ13); assay: SEC; HiLoad 26/600 Superdex200 column; 20 mM Tris, 100 mM NaCl, pH 7.5; calibrated with Mw standards (Blue Dextran, Ferritin, Catalase, Aldolase, Carbonic Anhydrase, Aprotinin); tagged rCI after IMAC
[6] = apparent, free-probe loss, no specific band detected

Substance	pKd [1]	pKd [2]	pKd [3]	pKd [4]	pKd [2, 6]	also measured
GTAATACGACTCACTATAGGATAATAAAGCTTGTTGAACAAAAATTCAACAAAAAAGTTCATAAATCATGAATTTTTGTATTGACTTGATTCAAAACAAGGTGTAAAGTGGTAACTTTCACACAAAAGG (double strand) [OR]	7.92					
GTAATACGACTCACTATAGGATATACCGGTAGAGAAAATACACTTATATTTTTTTAAAGAAAAAGTTCATGTTATATGAACTTAAGGAGGGGCACAATGGAACAAATCACGGATCCGGTAACTTTCACACAAAAGG (double strand) [OD]	7.92					
GTAATACGACTCACTATAGGGACTTGATTCAAAACAAGGTGTAAAGTATAGTTAAGTTCATGATACGTGAACTTGAGAGGAGGTGCTTTTATGTGTTACGACTACTCAGGTAACTTTCACACAAAAGG (double strand) [OL]	7.92					
OD		8.48	7.82	7.92		
OD control					6.05	
OL		8.41	7.66	7.92		
OL control					6.16	
OR		7.00	6.51	7.92		
OR control					6.16	
ɸ13 rCI (recombinant CI repressor protein of phage ɸ13 with an N-terminal His-tag and TEV cleavage site)						stoichiometry N [5]: 4
